Measurements published in patent US20150037340A1 (PEIRRE FABRE MEDICAMENT, published 2015).

Columns and labels:
[1] = biological target: T1, human protein Axl (cellular form on the cell surface) (human, UniProt P30530 26-894); assay: flow cytometry on SN12C cells, anti-mouse IgG Alexa488; table under the graph, unit from the axis Log [M]
T1 construct: also called Axl receptor; membrane Axl receptor
T1 sequence: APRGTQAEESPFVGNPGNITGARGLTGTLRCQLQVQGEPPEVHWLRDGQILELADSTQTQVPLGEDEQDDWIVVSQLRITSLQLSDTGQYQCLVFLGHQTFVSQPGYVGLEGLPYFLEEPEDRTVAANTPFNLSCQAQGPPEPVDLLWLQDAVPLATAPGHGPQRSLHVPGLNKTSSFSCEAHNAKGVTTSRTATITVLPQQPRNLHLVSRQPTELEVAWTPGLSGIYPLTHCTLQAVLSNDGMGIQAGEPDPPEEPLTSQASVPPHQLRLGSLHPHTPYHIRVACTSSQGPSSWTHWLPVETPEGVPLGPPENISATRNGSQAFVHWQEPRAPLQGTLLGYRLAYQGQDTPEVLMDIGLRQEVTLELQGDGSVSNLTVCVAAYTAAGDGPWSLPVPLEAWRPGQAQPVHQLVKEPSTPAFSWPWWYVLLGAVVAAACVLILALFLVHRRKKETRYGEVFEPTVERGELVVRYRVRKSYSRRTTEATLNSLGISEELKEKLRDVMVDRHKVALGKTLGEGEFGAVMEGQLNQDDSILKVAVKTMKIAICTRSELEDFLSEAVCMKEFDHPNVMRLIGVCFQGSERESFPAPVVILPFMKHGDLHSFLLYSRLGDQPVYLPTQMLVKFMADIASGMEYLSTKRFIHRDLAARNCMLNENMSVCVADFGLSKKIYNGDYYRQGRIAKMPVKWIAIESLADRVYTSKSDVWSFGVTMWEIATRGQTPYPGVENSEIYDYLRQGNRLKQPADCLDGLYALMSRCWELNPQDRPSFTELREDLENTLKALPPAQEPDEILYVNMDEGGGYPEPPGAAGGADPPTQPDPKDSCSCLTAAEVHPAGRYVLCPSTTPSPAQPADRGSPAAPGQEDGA
Method: Cells were detached using trypsin and cell concentration was adjusted at 1×10⁶ cells/ml in FACS buffer. A volume of 100 μL of cell suspension was incubated with increasing concentrations of either isotype controls or anti-Axl antibodies for 20 min. at 4° C. Cells were then washed three times with FACS buffer and incubated for 20 min. more using either anti-mouse IgG Alexa488 secondary antibody or anti-human IgG Alexa488 secondary antibody at 4° C. in the dark. Cells were washed three times with FACS buffer and resuspended with 100 μl of FACS buffer before adding propidium iodide.

[2] = biological target: T2, recombinant human Axl-Fc (R and D Systems, cat No 154-AL / 154AL/CF) (human, UniProt P30530 26-451); assay: sandwich ELISA: plate coated with the antibody, rhAxl-Fc titrated (the axis on the sheet reads 'Ab concentration'), detection with a biotinylated anti-Axl antibody and avidin-HRP
T2 construct: Bought protein; also called rhAxl-Fc; rh Axl-Fc protein; not shown: human IgG Fc portion (detected with anti-human IgG Fc)
T2 sequence: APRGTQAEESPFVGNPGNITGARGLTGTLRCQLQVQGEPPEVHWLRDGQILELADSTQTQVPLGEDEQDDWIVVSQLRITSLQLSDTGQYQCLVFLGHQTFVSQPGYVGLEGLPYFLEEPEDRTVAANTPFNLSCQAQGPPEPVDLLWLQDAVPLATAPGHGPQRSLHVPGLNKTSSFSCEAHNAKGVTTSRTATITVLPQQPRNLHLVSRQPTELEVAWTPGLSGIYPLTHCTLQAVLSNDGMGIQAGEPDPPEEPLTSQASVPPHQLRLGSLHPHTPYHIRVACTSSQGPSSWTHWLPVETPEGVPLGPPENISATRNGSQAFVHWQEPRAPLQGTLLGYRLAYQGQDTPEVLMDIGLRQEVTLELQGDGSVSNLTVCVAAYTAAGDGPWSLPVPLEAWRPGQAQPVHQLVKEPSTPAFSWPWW
Method: First ELISA experiments were realized. In the assay, 96 well plates (Immulon II, Thermo Fisher) were coated with a 5 μg/m of the 1613F12 solution in 1×PBS, overnight at 4° C. […] For the revelation step, a biotinylated-Axl antibody (in house product) was added at 0.85 μg/m for 1 hour at 37° C. This Axl antibody belongs to a distinct epitopic group. Then an avidin-horseradish peroxidase solution at 1/2000° in diluent buffer is added to the wells. Then the TMB substrate solution is added for 5 min. After addition of the peroxydase stop solution, the absorbance at […] was measured with a microplate reader.

[3] = biological target: T3, human extracellular domain (ECD) of Axl, His-tagged (pCEP[AXL]His6, produced in HEK293E) (human, UniProt P30530 26-451); assay: SPR (Biacore X), antibody captured on CM5 chip, Axl ECD as analyte, 1:1 Langmuir model
T3 construct: also called human Axl ECD; rhAxl ECD; not shown: His6 tag
T3 sequence: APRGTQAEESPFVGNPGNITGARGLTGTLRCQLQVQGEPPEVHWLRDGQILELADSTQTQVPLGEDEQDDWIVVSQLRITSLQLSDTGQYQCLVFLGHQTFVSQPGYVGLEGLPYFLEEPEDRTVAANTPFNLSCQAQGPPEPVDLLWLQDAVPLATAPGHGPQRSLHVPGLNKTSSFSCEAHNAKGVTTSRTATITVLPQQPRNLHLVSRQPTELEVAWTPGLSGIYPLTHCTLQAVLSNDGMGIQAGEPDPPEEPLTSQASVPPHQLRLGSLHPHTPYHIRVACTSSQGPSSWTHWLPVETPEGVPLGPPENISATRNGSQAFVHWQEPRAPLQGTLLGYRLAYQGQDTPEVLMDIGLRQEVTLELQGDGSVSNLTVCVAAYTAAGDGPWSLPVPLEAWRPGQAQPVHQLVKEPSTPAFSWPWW
Method: Briefly, the experiments were realized using a sensor chip CM5 as the biosensor. Rabbit IgGs were immobilized on the flow cells 1 and 2 (FC 1 and FC2) of a CM5 sensor chip at a level of 9300-10000 response units (RU) using amine coupling chemistry to capture antibodies.
Binding is evaluated using multiple cycles. Each cycle of measure is performed using a flow rate of 30 μl/imin in a HBS-EP buffer. Then the Axl antibody to test is captured on the chip for 1 min on FC2 only to reach a mean capture value of 311.8 RU (SD=5.1 RU) for the 1613F12. The analyte (Axl ECD antigen) is injected starting at 200 nM and using two-fold serial dilutions to measure rough ka and kd in real time.
At the end of each cycle, the surfaces are regenerated by injecting a 10 mM glycine hydrochloride pH1.5 solution to eliminate the antibody-antigen complexes and the capture antibody as well. The considered signal corresponds to the difference of the signals observed between FC1 and FC2 (FC2-FC1). Association rates (ka) and dissociation rates (kd) were calculated using a one-to-one Langmuir binding model. The equilibrium dissociation constant (KD) is determined as the […]. The experimental values were analyzed in the Biaevaluation software version 3.0. A χ2 analysis will be performed to assess the accuracy of the data.

B1: 1613F12 antibody (murine form) (antibody, V domains shown)
VH: EVHLQQSGAELVKPGASVKLSCTASGFNIRDTYIHWVKQRPEQGLEWIGRLDPANGHTKYGPNFQGRATMTSDTSSNTAYLQLSSLTSEDTAVYYCARGAYYYGSSGLFYFDYWGQGTTLSVSS
VL: DVQITQSPSYLATSPGETITINCRASKSISKYLAWYQEKPGKTNKLLIYSGSTLQSGVPSRFSGSGSGTDFTLTISSLEPEDFAMYFCQQHHEYPLTFGAGTELELK
notes: Whole murine monoclonal antibody purified from a hybridoma; a murine IgG1 (9G4) serves as its isotype control; also called m1613F12; monoclonal antibody 1613F12 derived from the hybridoma I-4505
- EC50 [1]: 2.16 nM
- EC50 (read off the curve) [2]: ~0.04 µg/mL
- Kd [3]: 2.29 nM
- koff [3]: 0.000242 s⁻¹
- kon [3]: 106000 M⁻¹ s⁻¹
